Measurements reported in publication PMC12509985, “Phosphoglycerate dehydrogenase interacts with and inhibits the protein kinase TAK1 to mitigate septic shock” (The Journal of Biological Chemistry, 2025).
Positions count from the first letter of the chain named. Names may count otherwise. “And” between values parts separate entries of the source, which are not always exact repeats. Identical values can stand only once.

B1: PHGDH-Flag, expressed in PHGDH-KO peritoneal macrophages (enzyme, UniProt Q61753 1-533, looked up)
chain: MAFANLRKVLISDSLDPCCRKILQDGGLQVVEKQNLSKEELIAELQDCEGLIVRSATKVTADVINAAEKLQVVGRAGTGVDNVDLEAATRKGILVMNTPNGNSLSAAELTCGMIMCLARQIPQATASMKDGKWDRKKFMGTELNGKTLGILGLGRIGREVATRMQSFGMKTVGYDPIISPEVAASFGVQQLPLEEIWPLCDFITVHTPLLPSTTGLLNDSTFAQCKKGVRVVNCARGGIVDEGALLRALQSGQCAGAALDVFTEEPPRDRALVDHENVISCPHLGASTKEAQSRCGEEIAVQFVDMVKGKSLTGVVNAQALTSAFSPHTKPWIGLAEAMGTLMHAWAGSPKGTIQVVTQGTSLKNAGTCLSPAVIVGLLREASKQADVNLVNAKLLVKEAGLNVTTSHNPGVPGEQGSGECLLTVALAGAPYQAVGLVQGTTPMLQMLNGAVFRPEVPLRRGQPLLVFRAQPSDPGMLPTMIGLLAEAGVQLLSYQTSMVSDGEPWHVMGLSSLLPSLETWKQHVLEAFQFCF
notes: phosphoglycerate dehydrogenase (PHGDH); also called WT PHGDH; PHGDH-HA (methods); source: PHGDH-KO mouse peritoneal macrophages, transfected 48 h, in lysate
B2: PHGDH (V425M)-Flag, expressed in PHGDH-KO peritoneal macrophages (enzyme, UniProt Q61753 1-533, looked up)
chain: B1 chain with V425M
notes: phosphoglycerate dehydrogenase (PHGDH) with V425M made by site-directed mutagenesis; also called PHGDH (V425M)-HA (methods); source: PHGDH-KO mouse peritoneal macrophages, transfected 48 h, in lysate
B3: PHGDH, endogenous in mouse peritoneal macrophages (enzyme, UniProt Q61753 1-533, looked up)
chain: B1 chain
notes: phosphoglycerate dehydrogenase (PHGDH), endogenous in mouse peritoneal macrophages; Seen as tetramers and dimers after cross-linking of the lysate; also called endogenous PHGDH; source: endogenous, mouse peritoneal macrophage (PM) extract

Key:
[1] = molecular target: the molecule itself; test: cross-linking; lysate of PHGDH-KO PMs transfected with PHGDH or PHGDH (V425M) for 48 h; 0.25 mM cross-linker (DSS in the legend, dimethyl suberimidate in the methods), room temperature 10 min; Western blot
[2] = molecular target: the molecule itself; test: cross-linking; lysate of WT PMs (native lysis buffer), untreated or pretreated with 15 μM CBR-5884 for 6 h; 0.25 mM cross-linker (DSS in the legend, dimethyl suberimidate in the methods), room temperature 10 min; Western blot of PHGDH

Protein | stoichiometry N [1] | stoichiometry N [2]
B1 | 4 | 
B2 | 4 and 2 | 
B3 |  | 4 and 2
